Reference: publication PMC9568556

Target: Bacillus pseudofirmus Mrp antiporter complex (hetero-heptamer MrpA-MrpG, one protomer) (Bacillus pseudofirmus) (UniProt Q9RGZ5)
Experiment: cryo-EM structure; purified Mrp dimer fractions in 20 mM Tris-HCl pH 8.0, 150 mM NaCl, 0.05% LMNG, 1-2 mg/ml; dimer map 2.96 Å, symmetry-expanded protomer map 2.2 Å

Bacillus pseudofirmus Mrp antiporter complex (hetero-heptamer MrpA-MrpG, one protomer) (from UniProt Q9RGZ5 1-805; Q9RGZ4 1-144; Q9RGZ3 1-112; Q9RGZ2 1-493; Q9RGZ1 1-158; Q9RGZ0 1-91; Q9RGY9 1-119)
stoichiometry N: 2
